Results as given in article PMC5513132, “Two bifunctional enzymes from the marine protist Thraustochytrium roseum: biochemical characterization of wax ester synthase/acyl-CoA:diacylglycerol acyltransferase activity catalyzing wax ester and triacylglycerol synthesis” (Biotechnology for Biofuels, 2017).

Key:
Test in all cases: purified protein
Assay type in all cases: biochemical, Thraustochytrium roseum
Settings in all cases: 100 μM hexadecanol, pH 7.4, 37 °C, acyl-CoA varied 15-90 μM
[1] = system: CCCCCCCCCCCC(=O)SCCNC(=O)CCNC(=O)[C@H](O)C(C)(C)COP(=O)(O)OP(=O)(O)OC[C@H]1O[C@@H](n2cnc3c(N)ncnc32)[C@H](O)[C@@H]1OP(=O)(O)O
[2] = system: CCCCCCCCCCCCCCCCCC(=O)SCCNC(=O)CCNC(=O)[C@H](O)C(C)(C)COP(=O)(O)OP(=O)(O)OC[C@H]1O[C@@H](n2cnc3c(N)ncnc32)[C@H](O)[C@@H]1OP(=O)(O)O
[3] = system: CCCCCCCC(=O)SCCNC(=O)CCNC(=O)[C@H](O)C(C)(C)COP(=O)(O)OP(=O)(O)OC[C@H]1O[C@@H](n2cnc3c(N)ncnc32)[C@H](O)[C@@H]1OP(=O)(O)O
[4] = system: CC/C=C\C/C=C\C/C=C\C/C=C\C/C=C\CCCC(=O)SCCNC(=O)CCNC(=O)[C@H](O)C(C)(C)COP(=O)(O)OP(=O)(O)OC[C@H]1O[C@@H](n2cnc3c(N)ncnc32)[C@H](O)[C@@H]1OP(=O)(O)O
[5] = system: CCCCCCCCCC(=O)SCCNC(=O)CCNC(=O)[C@H](O)C(C)(C)COP(=O)(O)OP(=O)(O)OC[C@H]1O[C@@H](n2cnc3c(N)ncnc32)[C@H](O)[C@@H]1OP(=O)(O)O
[6] = system: CCCCCCCCCCCCCC(=O)SCCNC(=O)CCNC(=O)[C@H](O)C(C)(C)COP(=O)(O)OP(=O)(O)OC[C@H]1O[C@@H](n2cnc3c(N)ncnc32)[C@H](O)[C@@H]1OP(=O)(O)O
[7] = system: CCCCC/C=C\C/C=C\C/C=C\CCCCC(=O)SCCNC(=O)CCNC(=O)[C@H](O)C(C)(C)COP(=O)(O)OP(=O)(O)OC[C@H]1O[C@@H](n2cnc3c(N)ncnc32)[C@H](O)[C@@H]1OP(=O)(O)O
[8] = system: CCCCC/C=C\C/C=C\C/C=C\C/C=C\CCCC(=O)SCCNC(=O)CCNC(=O)[C@H](O)C(C)(C)COP(=O)(O)OP(=O)(O)OC[C@H]1O[C@@H](n2cnc3c(N)ncnc32)[C@H](O)[C@@H]1OP(=O)(O)O
[9] = system: CCCCCCCCCCCCCCCC(=O)SCCNC(=O)CCNC(=O)[C@H](O)C(C)(C)COP(=O)(O)OP(=O)(O)OC[C@H]1O[C@@H](n2cnc3c(N)ncnc32)[C@H](O)[C@@H]1OP(=O)(O)O
purified protein [10] = substrate: CCCCCCCCCC(=O)SCCNC(=O)CCNC(=O)[C@H](O)C(C)(C)COP(=O)(O)OP(=O)(O)OC[C@H]1O[C@@H](n2cnc3c(N)ncnc32)[C@H](O)[C@@H]1OP(=O)(O)O; remark: listed apart in the source
purified protein [11] = substrate: CCCCCCCCCCCCCCCCCC(=O)SCCNC(=O)CCNC(=O)[C@H](O)C(C)(C)COP(=O)(O)OP(=O)(O)OC[C@H]1O[C@@H](n2cnc3c(N)ncnc32)[C@H](O)[C@@H]1OP(=O)(O)O; remark: listed apart in the source
purified protein [12] = substrate: CC/C=C\C/C=C\C/C=C\C/C=C\C/C=C\CCCC(=O)SCCNC(=O)CCNC(=O)[C@H](O)C(C)(C)COP(=O)(O)OP(=O)(O)OC[C@H]1O[C@@H](n2cnc3c(N)ncnc32)[C@H](O)[C@@H]1OP(=O)(O)O; remark: listed apart in the source
purified protein [13] = substrate: CCCCC/C=C\C/C=C\C/C=C\CCCCC(=O)SCCNC(=O)CCNC(=O)[C@H](O)C(C)(C)COP(=O)(O)OP(=O)(O)OC[C@H]1O[C@@H](n2cnc3c(N)ncnc32)[C@H](O)[C@@H]1OP(=O)(O)O; remark: listed apart in the source
purified protein [14] = substrate: CCCCCCCCCCCC(=O)SCCNC(=O)CCNC(=O)[C@H](O)C(C)(C)COP(=O)(O)OP(=O)(O)OC[C@H]1O[C@@H](n2cnc3c(N)ncnc32)[C@H](O)[C@@H]1OP(=O)(O)O; remark: listed apart in the source
purified protein [15] = substrate: CCCCCCCCCCCCCCCC(=O)SCCNC(=O)CCNC(=O)[C@H](O)C(C)(C)COP(=O)(O)OP(=O)(O)OC[C@H]1O[C@@H](n2cnc3c(N)ncnc32)[C@H](O)[C@@H]1OP(=O)(O)O; remark: listed apart in the source
purified protein [16] = substrate: CCCCCCCC(=O)SCCNC(=O)CCNC(=O)[C@H](O)C(C)(C)COP(=O)(O)OP(=O)(O)OC[C@H]1O[C@@H](n2cnc3c(N)ncnc32)[C@H](O)[C@@H]1OP(=O)(O)O; remark: listed apart in the source
purified protein [17] = substrate: CCCCC/C=C\C/C=C\C/C=C\C/C=C\CCCC(=O)SCCNC(=O)CCNC(=O)[C@H](O)C(C)(C)COP(=O)(O)OP(=O)(O)OC[C@H]1O[C@@H](n2cnc3c(N)ncnc32)[C@H](O)[C@@H]1OP(=O)(O)O; remark: listed apart in the source
purified protein [18] = substrate: CCCCCCCCCCCCCC(=O)SCCNC(=O)CCNC(=O)[C@H](O)C(C)(C)COP(=O)(O)OP(=O)(O)OC[C@H]1O[C@@H](n2cnc3c(N)ncnc32)[C@H](O)[C@@H]1OP(=O)(O)O; remark: listed apart in the source

Molecule: TrWSD5 (ΔTmTrWSD5) (Thraustochytrium roseum; DEL472-494)
- Km [1]: 25.93 µM
- Vmax [1]: 0.152 µmol/min/mg
- kcat [1]: 0.243 s⁻¹
- kcat/Km [1]: 9370 M⁻¹ s⁻¹
- Km [2]: 75.87 µM
- Vmax [2]: 0.379 µmol/min/mg
- kcat [2]: 0.604 s⁻¹
- kcat/Km [2]: 7960 M⁻¹ s⁻¹
- Km [3]: 12.25 µM
- Vmax [3]: 0.0639 µmol/min/mg
- kcat [3]: 0.102 s⁻¹
- kcat/Km [3]: 8330 M⁻¹ s⁻¹
- Km [4]: 106.2 µM
- Vmax [4]: 0.312 µmol/min/mg
- kcat [4]: 0.498 s⁻¹
- kcat/Km [4]: 4690 M⁻¹ s⁻¹
- Km [5]: 0.96 µM
- Vmax [5]: 0.0589 µmol/min/mg
- kcat [5]: 0.0941 s⁻¹
- kcat/Km [5]: 98300 M⁻¹ s⁻¹
- Km [6]: 18.5 µM
- Vmax [6]: 0.207 µmol/min/mg
- kcat [6]: 0.331 s⁻¹
- kcat/Km [6]: 17900 M⁻¹ s⁻¹
- Km [7]: 284.68 µM
- Vmax [7]: 0.152 µmol/min/mg
- kcat [7]: 0.242 s⁻¹
- kcat/Km [7]: 850 M⁻¹ s⁻¹
- Km [8]: 226.35 µM
- Vmax [8]: 0.103 µmol/min/mg
- kcat [8]: 0.165 s⁻¹
- kcat/Km [8]: 729 M⁻¹ s⁻¹
- Km [9]: 24.77 µM
- Vmax [9]: 0.213 µmol/min/mg
- kcat [9]: 0.341 s⁻¹
- kcat/Km [9]: 13700 M⁻¹ s⁻¹

B1: TrWSD4 (Thraustochytrium roseum) (protein)
chain: MAENNNHLDEAVVDEAQREQDVEVEEEVEEEEEEEEEEEEEAVVEDVKATLADGPAEKSPKVAPKQTKRKGRRVKHRASVTTRLIGNLQREAQSKSSWVVGLLFFKSDPGFEAVRETVGKRLLQIPRFRSKLTARRFPAKMEFVELDDDEIDMDYHFRQAFQDRTATLDEVDEFVGSMFDGFNHPMDKPLWQITYIPKLEDGRAVLITNISHIVGDGIAQVEVLMRLLDPVKESKGEKVQKPRTGANKKRKPPALGPFTKAKVFMGGVWEGFFSVISSPDKKNTLRLKDVNKPSPTKRCTFSETIPLDKVKELKNMYEGATLNDVLVTLLTLTLRAYFREVGDKGALRNKVRAQFPINIRSKSEGPFRNDNPRNKFTYGFMPFHVSGNRDASATFWRTKRTLDKIKSSPSPVVQHQVGKVISNIMPLKALNAQLLNLAAKATAQVSNVPGPQDAVTVAGTEVDDMRFLLYSPLSFYVGLLTYNGNLSASFCIDSALADPRLISKHWLPEFEKFYAHAKEAAGESGLIRKPRSCLDCL
- Km (purified protein [10]): 17.6 µM
- Vmax (purified protein [10]): 0.0122 µmol/min/mg
- kcat (purified protein [10]): 0.0154 s⁻¹
- kcat/Km (purified protein [10]): 873 M⁻¹ s⁻¹
- Km (purified protein [11]): 19.15 µM
- Vmax (purified protein [11]): 0.0302 µmol/min/mg
- kcat (purified protein [11]): 0.0379 s⁻¹
- kcat/Km (purified protein [11]): 1980 M⁻¹ s⁻¹
- Km (purified protein [12]): 131.16 µM
- Vmax (purified protein [12]): 0.00905 µmol/min/mg
- kcat (purified protein [12]): 0.0114 s⁻¹
- kcat/Km (purified protein [12]): 86.6 M⁻¹ s⁻¹
- Km (purified protein [13]): 280.86 µM
- Vmax (purified protein [13]): 0.0188 µmol/min/mg
- kcat (purified protein [13]): 0.0236 s⁻¹
- kcat/Km (purified protein [13]): 84 M⁻¹ s⁻¹
- Km (purified protein [14]): 0.14 µM
- Vmax (purified protein [14]): 0.0161 µmol/min/mg
- kcat (purified protein [14]): 0.0202 s⁻¹
- kcat/Km (purified protein [14]): 146000 M⁻¹ s⁻¹
- Km (purified protein [15]): 3.08 µM
- Vmax (purified protein [15]): 0.0255 µmol/min/mg
- kcat (purified protein [15]): 0.032 s⁻¹
- kcat/Km (purified protein [15]): 10400 M⁻¹ s⁻¹
- Km (purified protein [16]): 29.93 µM
- Vmax (purified protein [16]): 0.0148 µmol/min/mg
- kcat (purified protein [16]): 0.0185 s⁻¹
- kcat/Km (purified protein [16]): 619 M⁻¹ s⁻¹
- Km (purified protein [17]): 297.17 µM
- Vmax (purified protein [17]): 0.0118 µmol/min/mg
- kcat (purified protein [17]): 0.0148 s⁻¹
- kcat/Km (purified protein [17]): 49.9 M⁻¹ s⁻¹
- Km (purified protein [18]): 3.94 µM
- Vmax (purified protein [18]): 0.0202 µmol/min/mg
- kcat (purified protein [18]): 0.0254 s⁻¹
- kcat/Km (purified protein [18]): 6440 M⁻¹ s⁻¹
